Measurements as given in a protein production outcome set (Wang et al. 2014).

assay: label from the status in PepcDB records

Sequence	protein production
ELQVIQPEKSVSVAAGESATLRCAMTSLIPVGPIMWFRGAGAGRELIYNQKEGHFPRVTTVSELTKRNNLDFSISISNITPADAGTYYCVKFRKGSPDDVEFKSGAGTELSVRAKPSAPVVSG	not failed
ELSERQRAEQKLLEVNQLQKGIFDVANYMIISTDRRGIISTFNRTAEEILGYTAAELIGQQTPLIFHDQEEMASEAVQLSQQLQQTIRPNSIDMFAIPAIQWGVYEREWTYITKTGDRLPVYVSITALRDDQGKVDGLVGV	failed
ELTAQHVMTPRVRVSALQSSATAEDVVNLTRATGLSRFPVYRDRIDEIVGMVHLKDALAIPSRDRLRTPVGRIAQPPLLVPETLPVQPLLARLRSEQPIAVVVDEYGGTAGVVTLEDIVEELVGEVRDEHDGQDLPELAVAPPEDGRPAWDADGSCRVDILQRIGLDV	not failed
ELVVKRGEIFGVVGPTGSGKSNLISDIEQLAQGDTPSNRKILVNGNVPDTEMRRDPRKRRIAQLSQNMNFLADMTVEEFLIMHAKSRGMNSEGIVDKVIKLANNLTGEPIEKDYNLTILSGGQSRSLMVADVAVISDSPIVLIDEIENAGIKKHEALELLAGCGKIVMVITHDPVLALMTTRRVVMRNGGMNEIIETTE	failed
ENEIERPEDMRVRTLANKSKMKVSIVQQIDRKVALDDIAVSHGLDFPELLSEVETIVYSGTRINIDYFINEVMDEDHLEDIFEYFKESTTDSLEEAMQELGKDYSEEEIRLVRIKFLSEMAN	not failed
EPAEIKIIREAYKKAFLFVNKGLNTDELGQKEEAKNYYKQGIGHLLRGISISSKESEHTGPGWESARQMQQKMKETLQNVRTRLEILEKGLATSLQNDLQEVP	not failed
EPPKLVNDKPHKFKDHFFKKPKFCDVCARMIVLNNKFGLRCKNCKTNIHEHCQSYVEMQRC	not failed
EQMTRDEIEYMLSKSEATLDAEEIEMLQGVFSLDEMMAREVMVPRTDAFMIDINDDPLENIQEILKQSFSRIPVYDVDKDKIIGLIHTKRLLESGFRQGFDQINMRKMLQEPLFVPETIFVDDLLRQLRNTQNQMAILLDEYGGVAGLVTLEDLLEEIVGEID	failed
EQVFQGKLTTVGNPKGNVTLVEFFDYQCIHCKKMASTIENLVKKDSGLRVIYKEFPIFGKTSDLASRVALAAGMQGKYQAMHNALITIDKRLDEKTVMDAAKSIGLDMQKLKKDMDSQEVTDILDANRQLAEKLHLMGTPAFIIGSTPDGQYKKGSEISFIPGATSEQSLRELIKKAAGN	failed
ERLRGVSVEAPTRTGERWNALMDQIVEGVLAWHRIDSHGCVGNVDSTQENDWFSWYQQRVEVLWATLSNMNSPLMTLEDRAVLYRARAALNSLFAGFDDSSVLVHGNLTLRSMLKDPRSDQLLAMLNPGPMLWAPREYDLFRLSEEGMPSQLFYRYLSKAPVSESFVARRWLYTLWELVSRFIHTGNLDRTLFDNAAQQLLPWLE	failed
ESKSPIIQNVLSYITEHFSEGMSLKTLGNDFHINAVYLGQLFQKEMGEHFTDYLNRYRVNYAKEELLQTKDNLTIIAGKSGYTDMAYFYRQFKKHTGETPNRYRKIHQ	not failed
ESPLYCVMAKADGPVQGLADLKGRKVGFSVAGIEEALLHTMLRTNGVEPAEVEFVNVNFALTPALASGQADAVAGAFRNFELHQIAAAGSEGRCFLPEENGVPSYEELIYVANPDRMDREKVVAFLKVTERAAGFIADHPEEAWEIFRG	failed
ESRLDRILESGVLRVATTGDYKPFSYRTEEGGYAGFDVDMAQRLAESLGAKLVVVPTSWPNLMRDFADDRFDIAMSGISINLERQRQAYFSIPYLRDGKTPITLCSEEARFQTLEQIDQPGVTAIVNPGGTNEKFARANLKKARILVHPDNVTIFQQIVDGKADLMMTDAIEARLQSRLHPELCAVHPQQPFDFAEKAYLLPRDEAFKRYVDQWLHIAEQSGLLRQ	failed
ETNEITIGITVTTTGPAAALGIPERNALEFVAKEIGGHPLKVIVLDDGGDPTAATTNARRFVTESKADVIMGSSVTPPTVAVSNVANEAQVPHIALAPLPITPERAKWSVAMPQPIPIMGKVLYEHMKKNNIKTVGYIGYSDSYGDLWFNDLKKQGEAMGLKIVAEERFARPDTSVAGQVLKLVAANPDAILVGASGTAAALPQTSLRERGYKGLIYQTHGAASMDFIRIAGKSAEGVLMASGPVMDPEGQDDSALTKKPGLELNTAYEAKYGPNSRSQFAAHSFDAFKVLERVVPVALKTAKPGTQEFREAIRKALVSEKDIAASQGVYSFTETDRYGLDDRSRILLTVKDGKYVMVK	not failed
ETQPESAAFTAPSTDNPIRINFNENPLGMSPKAQAAARDAVVKANRYAKNEILMLGNKLAAHHQVEAPSILLTAGSSEGIRAAIEAYASLEAQLVIPELTYGDGEHFAKIAGMKVTKVKMLDNWAFDIEGLKAAVAAYSGPSIVYLVNPNNPTGTITPADVIEPWIASKPANTMFIVDEAYAEFVNDPRFRSISPMITQGAENIILLKTFSKIHAMAGMRVGYAVAHPTVIALMGRYVAGEKINFSGVDAALASMNDSAFITYSKKSNDVSRQILLKALEDLKLPYLPSEGNFVFHQLVVPLKDYQTHMADAGVLIGRAFPPADNWCRISLGTPQEMQWVADTMREFRKKSWI	not failed
EVPIGFDTDELSFDMSLVLLTGDMQTKASDPNYTYATTEELTIQNCHVAVFDKDGKRIYFKNFYSKDLGEMKTIGNLSGYELQLEGVRTFGKEDKKVSVLVVANANNANNSPFDNLTTYDGVDNSYTAKTIAKGPVTASLLVKIGKSETTLKYNQDNAPVTVSLIQLSAKIEYTGVYKKENGELLEGFSLTKVAGLNASSKITIFNTSAVENGAFSDLAYPTTKPVTFYTYEISDAFKEVILSVQSGVEPKEYPFPANKFIKGNYYRIKGLKSSTEIEWVLENVEDKEVTLDPFE	not failed
EVSYAKERVRLITASGRTHDLTVELAVDPSQREQGLMYRRQMAPDHGMLFDFGETRPVMMWMKNTYLPLDMLFIASDGTIRTIHENAVPHSEAIIDSREPVAYVLELNAGTVKRLGVSPGDRLEGAGLPATKRAN	not failed

Sequence	protein production
FDFKAGEEVLARWTDCRYYPAKIEAINKEGTFTVQFYDGVIRCLKRMHIKAMPEDAKGQDWIALVKA	not failed
FDQAPVLVVGDVMLDRYWHGGTSRISPEAPVPVVKVDQIEDRPGGAANVALNIAALGAPASLVGVTGDDEAAESLTNSLKAAGVVARFQRIADQPTIVKLRVMSRHQQLLRIDFEEPFNTDPLALSAEVYSLLDGIKVLVLSDYGKGALKNHQALIQAARKRGIPVLADPKGKDFAIYRGASLITPNLSEFEAIVGHCEDEAQLVTKGAQLMQELDLGALLVTRGEHGMTLLRPDQQALHLPARAREVFDVTGAGDTVISTLAAAIAAGEELPHAVALANLAAGIVVGKLGTAAISAPELRRAIQR	failed
FEDFNTNPYQPSKVPASNLLSTMFNVYACPQQNACQEINCMWASFSGQVTATANWSFGKNIFAYYNASEGHNDSSWGRLYGYIYPSFFLVENSTEKKGVIYAMAQLTRVYGMQLLASLQGPIPYTQMKAGETEAPYDNEQTVWHAMFDDLDNAITILKSAATFGVNQDLAVVDQFYKGDCSKWLKFANTLKLRMAIRISGVEPEYAQTKAQEAVLGGVMESVGDSSYDTTNGGINENGYAIVSGWPEVRANACLVSYMNGYNDPRRPAYFTPQTQTAAGGYVGVRSGSAEIPEPTVYANYSKLFIATDKTLPQPVMYAAEAAFLRAEGALKGWNMGGDAKTFYEKGVRLSFEEFGVSGADDYLADATSIPGNYVDNLIAGHTGNNYTNQSSITIKWEDGADDAKKLERVLTQKWIACYPDPMNGWADFRRTGYPRIFPATESMNADCNTGRGQRRLRFTRSEYNNNKANVEAAVSMLSNGKDSNGTDLWWAMKENGTY	not failed
FFKGAASSVLELTEAELVTAEAVRSVWQRILPKVLEVEDSTDFFKSGAASVDVVRLVEEVKELCDGLELENEDVYMASTFGDFIQLLVRKLRGDDEE	not failed
FIQIKPGYDYPIISALRAIISGNADAVPDEVGGVSKEKLVELAETMKNAKYGAVLYGLGVTQSRGRDRNVENAVKLIQLLNRHTRWVIWPMRGHYNVVGAGEVPAWEVGYQYAIDFSRGYPR	failed
FLNSVLNFSLFLLNAHDSYLEVMRNRDTLSRMISSLEEVLDVSRRAELIEKTLHYLKDMFPGIVLSSVSLLEDGKIKTFFLKNGQIEVVNLKRGIVVKAFETKRDLFVNDVRDFPEFYDVTNGRTRSAAAIFFEYENTPLVLEIEKDSEITEYELSSLKMMARILAIFFSR	failed
FQQTQDWVFIIDEKISRITANQSMRAVFDWPEEEFDFSDKLLGVSQKRRSFYRKLMLSLKEGEHWRGEELIVTANKDEYHVIINVTVGFSSVTNALHYLFVLTDIS	failed
FRPHFLQAPGDLTVQEGKLCRMDCKVSGLPTPDLSWQLDGKPVRPDSAHKMLVRENGVHSLIIEPVTSRDAGIYTCIATNRAGQNSFSLELVVAAKE	not failed
FSKTQRWAEPGEPICVVCGRYGEYICDKTDEDVCSLECKAKHLLQVKEKEEKS	not failed
FTDITERYQHAEALSESERWIRLITDHVPALIAYLNADLVYEFTNKVYEEWYCWPRGVMLGQSLREVHSEQHYQRLESYVERALAGESVTFEFAETNINNQERYMLRSYVPNRLANGEVVGIFVLIRDITERRRTAEALHQAYQNLELRV	failed
FVNTFIQFKKPIIVAVNGPAIGLGASILPLCDVVWANEKAWFQTPYTTFGQSPDGCSTVMFPKIMGGASANEMLLSGRKLTAQEACGKGLVSQVFWPGTFTQEVMVRIKELASCNPVVLEESKALVRCNMKMELEQANERECEVLKKIWGSAQGMDSMLKYLQRKIDEF	failed
GAFDAAQLDVAQAYARHLAVSLQQSLLRQRVARLGRVYEVLSRINALVARCHEREELFDGICRVTVEVGTYRMAWVGVIDPETLNGTVVAFRGEDSDYLRQIRLSAKEDSPYRDRPACKAVRQKEIVVCNDVQEDASLKGLAPHLISYGVRSVACLPVMLDGRAFAVLALFAGDVGAFDRQEMGLLRELASDIGFALDHIQKEERLDYLAYYDS	failed
GDAPPEIHAIYTDITERTRLEETLTYRSELESKIVDISTRFINTPIDDLDREIEAALQAIGAFVDADRSYVFLFDDEAATMSNTHEWRTEATASTQSRLQNIPYAETPWFMARMRRREGPLRVPRLEDLPPDAAGLRQRLEAGNVQSLLVLPMLNDQDLIGFVGFDAVRQQRDWDADTVMLLRVLSDAISNALQRKTAEKEMLAAKEEAEDANRMKSVFLANMSHEIRTP	not failed
GEGIQPSKKLITRDYKVKEFNKIDAGTVGNIYYTQSTDGKTDLQIYGPDNIVALIQVAVKDNTLFLSIDKSKKVRNFKKMKITITSPTLNGISFKGVGDVHIENGLTTDNLDIESKGVGNVDIQSLTCQKLNVQSMGVGDVKLEGTAQIAALHSKGVGNIEAGNLRANAVEASSQGVGDITCNATESIDAAVRGVGSIKYKGSPTIKSLSKKGVGTIKNI	not failed
GEIIEGCRLPVLRRNQDNEDEWPLAEILSVKDISGRKLFYVHYIDFNRRLDEWVTHERLDLKKIQFPKKEAKTP	not failed
GEKLLNAASTRGRLCVGIDPHESLLTSWGLPVNVDGLAEFSRACVEAFADTVALVKPQVAFYERFGSAGFAILEETIQTLRERGCLVVSDAKRGDIGSTMAGYASAWLDPASPLSSDAVTVSPYLGFHSLDPVFELAEQHGRGVFVLAATSNPEARELQDQQNADGVSISQQIVDQAAALNAPYMAQGKAGNIGVVIGATLSKPPRLSTLGGAILMPGVGAQGGTASDVDEIAGDMAHLAFPNVSRSILATGPDIAEMKNSVAKN	failed
